Patent US20050123900A1
pEC50, pKd: −log10 of the molar value.

Legend:
[1] = biological target: HIV-1 Env UG037.8 on 293 cells (HIV-1 isolate UG037.8); assay: cell-based or functional assay
[2] = biological target: HIV-1 Env US005.11 on 293 cells (HIV-1 isolate US005.11); assay: cell-based or functional assay
[3] = biological target: HIV-1 Env UG975.10 on 293 cells (HIV-1 isolate UG975.10); assay: cell-based or functional assay
[4] = biological target: HIV-1 Env HT593.1 on 293 cells (HIV-1 isolate HT593.1); assay: cell-based or functional assay
[5] = biological target: HIV-1 Env 89.6 on 293 cells (HIV-1 isolate 89.6) (UniProt Q73372); assay: cell-based or functional assay
[6] = biological target: HIV-1 Env BR025.9 on 293 cells (HIV-1 isolate BR025.9); assay: cell-based or functional assay
[7] = biological target: HIV-1 Env RW020.5 on 293 cells (HIV-1 isolate RW020.5); assay: cell-based or functional assay
[8] = biological target: HIV-1 Env NL4-3 on 293 cells (HIV-1 isolate NL4-3); assay: cell-based or functional assay
[9] = biological target: HIV-1 Env TH022.4 on 293 cells (HIV-1 isolate TH022.4); assay: cell-based or functional assay
[10] = biological target: HIV-1 Env BR029.2 on 293 cells (HIV-1 isolate BR029.2); assay: cell-based or functional assay
[11] = biological target: HIV-1 Env US715.6 on 293 cells (HIV-1 isolate US715.6); assay: cell-based or functional assay
[12] = biological target: HIV-1 Env GX-C44 on pseudotype virus (HIV-1 isolate GX-C44); assay: cell-based or functional assay
[13] = biological target: HIV-1 Env R2 on pseudotype virus (HIV-1 isolate R2); assay: cell-based or functional assay
[14] = biological target: HIV-1 Env #4-4/116 on pseudotype virus (HIV-1 isolate #4-4/116); assay: cell-based or functional assay
[15] = biological target: HIV-1 Env GX-E14 on pseudotype virus (HIV-1 isolate GX-E14); assay: cell-based or functional assay
[16] = biological target: HIV-1 Env #6-4/41 on pseudotype virus (HIV-1 isolate #6-4/41); assay: cell-based or functional assay
[17] = biological target: HIV-1 Env VI1273 on pseudotype virus (HIV-1 isolate VI1273); assay: cell-based or functional assay
[18] = biological target: HIV-1 Env VI1399 on pseudotype virus (HIV-1 isolate VI1399); assay: cell-based or functional assay
[19] = biological target: HIV-1 Env TH966 on pseudotype virus (HIV-1 isolate TH966); assay: cell-based or functional assay
[20] = biological target: HIV-1 Env #8-4/49 on pseudotype virus (HIV-1 isolate #8-4/49); assay: cell-based or functional assay
[21] = biological target: HIV-1 Env Z2Z6 on pseudotype virus (HIV-1 isolate Z2Z6); assay: cell-based or functional assay
[22] = biological target: HIV-1 Env MN-TCLA on pseudotype virus (HIV-1 isolate MN-TCLA) (UniProt P05877); assay: cell-based or functional assay
[23] = biological target: HIV-1 Env #9-131 on pseudotype virus (HIV-1 isolate #9-131); assay: cell-based or functional assay
[24] = biological target: gp120 89.6 (HIV-1 isolate 89.6) (UniProt Q73372); assay: ELISA, antigen coated directly on plate, soluble Fab titrated, Langmuir fit
[25] = biological target: gp120 HXB2 (HIV-1 isolate HXB2) (UniProt P04578); assay: as above
[26] = biological target: gp120 JR-FL (HIV-1 isolate JR-FL) (UniProt P20871); assay: as above
[27] = biological target: sCD4-gp120 HXB2 complex (HIV-1 isolate HXB2) (UniProt P04578); assay: ELISA, sCD4-gp120 complex coated directly on plate, soluble Fab titrated, Langmuir fit
[28] = biological target: sCD4-gp120 JR-FL complex (HIV-1 isolate JR-FL) (UniProt P01730); assay: as above
[29] = biological target: sCD4-gp120 89.6 complex (HIV-1 isolate 89.6) (UniProt Q73372); assay: as above
[30] = biological target: HIV-1 Env V5 on pseudotype virus (HIV-1 isolate V5); assay: cell-based or functional assay
[31] = biological target: HIV-1 Env VI14004 on pseudotype virus (HIV-1 isolate VI14004); assay: cell-based or functional assay
[32] = biological target: HIV-1 Env 92RW020.5 on pseudotype virus (HIV-1 isolate 92RW020.5); assay: cell-based or functional assay
[33] = biological target: HIV-1 Env P37 on pseudotype virus (HIV-1 isolate P37); assay: cell-based or functional assay
[34] = biological target: gp120 IIIB (HIV-1 isolate IIIB); assay: ELISA, antigen coated directly on plate, soluble Fab titrated, Langmuir fit
[35] = biological target: gp120 IIIB (HIV-1 isolate IIIB); assay: ELISA, soluble Fab titrated on Env (gp120 by the footnote; direct coat or D7324 capture not specified)
[36] = biological target: gp140 89.6 (HIV-1 isolate 89.6) (UniProt Q73372); assay: ELISA, soluble Fab titrated on Env (direct coat or D7324 capture not given)
[37] = biological target: gp140 ZR001.3 (HIV-1 isolate ZR001.3); assay: as above
[38] = biological target: gp140 BR019.10 (HIV-1 isolate BR019.10); assay: as above
[39] = biological target: gp140 CM243 (HIV-1 isolate CM243); assay: as above
[40] = biological target: gp140 UG037.8 (HIV-1 isolate UG037.8); assay: as above
[41] = biological target: gp140 UG975-10 (HIV-1 isolate UG975-10); assay: as above
[42] = biological target: gp140 MW965.26 (HIV-1 isolate MW965.26); assay: as above
[43] = biological target: gp140 HT593.1 (HIV-1 isolate HT593.1); assay: as above
[44] = biological target: gp140 Bal-L (HIV-1 isolate Bal-L); assay: as above
[45] = biological target: gp140 UG024.2 (HIV-1 isolate UG024.2); assay: as above
[46] = biological target: gp140 R2 (HIV-1 isolate R2); assay: as above
[47] = biological target: sCD4-gp120 IIIB complex (HIV-1 isolate IIIB) (UniProt P01730); assay: ELISA, sCD4-gp120 complex coated directly on plate, soluble Fab titrated, Langmuir fit

Fab X5
% of fusion inhibition (syncytia count), Fab at 50 µg/ml [1]: 34% | % of fusion inhibition (syncytia count), Fab at 50 µg/ml [2]: 72% | % of fusion inhibition (syncytia count), Fab at 50 µg/ml [3]: 19% | % of fusion inhibition (syncytia count), Fab at 50 µg/ml [4]: 27% | % of fusion inhibition (syncytia count), Fab at 50 µg/ml [5]: 93% | % of fusion inhibition (syncytia count), Fab at 50 µg/ml [6]: 71% | % of fusion inhibition (syncytia count), Fab at 50 µg/ml [7]: 45% | % of fusion inhibition (syncytia count), Fab at 50 µg/ml [8]: 83% | % of fusion inhibition (syncytia count), Fab at 50 µg/ml [9]: 43% | % of fusion inhibition (syncytia count), Fab at 50 µg/ml [10]: 36% | % of fusion inhibition (syncytia count), Fab at 50 µg/ml [11]: 28%

Fab m14
% of fusion inhibition (syncytia count), Fab at 50 µg/ml [1]: 100% | % of fusion inhibition (syncytia count), Fab at 50 µg/ml [2]: 95% | % of fusion inhibition (syncytia count), Fab at 50 µg/ml [3]: 22% | M14 Concentration (µg/ml) of Fab, 50% neutralization endpoint, pseudovirus assay [12]: 8.8 µg/mL | M14 Concentration (µg/ml) of Fab, 50% neutralization endpoint, pseudovirus assay [13]: 2.24 µg/mL | M14 Concentration (µg/ml) of Fab, 50% neutralization endpoint, pseudovirus assay [14]: > 100 µg/mL | % of fusion inhibition (syncytia count), Fab at 50 µg/ml [4]: 78% | % of fusion inhibition (syncytia count), Fab at 50 µg/ml [5]: 100% | % of fusion inhibition (syncytia count), Fab at 50 µg/ml [6]: 71% | M14 Concentration (µg/ml) of Fab, 50% neutralization endpoint, pseudovirus assay [15]: 100 µg/mL | % of fusion inhibition (syncytia count), Fab at 50 µg/ml [7]: 31% | M14 Concentration (µg/ml) of Fab, 50% neutralization endpoint, pseudovirus assay [16]: > 100 µg/mL | % of fusion inhibition (syncytia count), Fab at 50 µg/ml [8]: 96% | % of fusion inhibition (syncytia count), Fab at 50 µg/ml [9]: 100% | M14 Concentration (µg/ml) of Fab, 50% neutralization endpoint, pseudovirus assay [17]: 3.1 µg/mL | M14 Concentration (µg/ml) of Fab, 50% neutralization endpoint, pseudovirus assay [18]: > 100 µg/mL | M14 Concentration (µg/ml) of Fab, 50% neutralization endpoint, pseudovirus assay [19]: > 100 µg/mL | % of fusion inhibition (syncytia count), Fab at 50 µg/ml [10]: 71% | M14 Concentration (µg/ml) of Fab, 50% neutralization endpoint, pseudovirus assay [20]: 35.4 µg/mL | M14 Concentration (µg/ml) of Fab, 50% neutralization endpoint, pseudovirus assay [21]: 50 µg/mL | % of fusion inhibition (syncytia count), Fab at 50 µg/ml [11]: 35% | M14 Concentration (µg/ml) of Fab, 50% neutralization endpoint, pseudovirus assay [22]: 2.24 µg/mL | M14 Concentration (µg/ml) of Fab, 50% neutralization endpoint, pseudovirus assay [23]: 100 µg/mL | pKd [24]: 8.27 | pKd [25]: 9.52 | pKd [26]: 9.05 | pKd [27]: 9.40 | pKd [28]: 8.92 | pKd [29]: 8.14

Fab m18
% of fusion inhibition (syncytia count), Fab at 50 µg/ml [1]: 34% | % of fusion inhibition (syncytia count), Fab at 50 µg/ml [2]: 93% | % of fusion inhibition (syncytia count), Fab at 50 µg/ml [3]: 56% | M18 Concentration (µg/ml) of Fab, 50% neutralization endpoint, pseudovirus assay [12]: > 25 µg/mL | M18 Concentration (µg/ml) of Fab, 50% neutralization endpoint, pseudovirus assay [13]: 1.6 µg/mL | M18 Concentration (µg/ml) of Fab, 50% neutralization endpoint, pseudovirus assay [14]: 6.3 µg/mL | % of fusion inhibition (syncytia count), Fab at 50 µg/ml [4]: 39% | % of fusion inhibition (syncytia count), Fab at 50 µg/ml [5]: 100% | % of fusion inhibition (syncytia count), Fab at 50 µg/ml [6]: 86% | M18 Concentration (µg/ml) of Fab, 50% neutralization endpoint, pseudovirus assay [15]: > 100 µg/mL | % of fusion inhibition (syncytia count), Fab at 50 µg/ml [7]: 25% | M18 Concentration (µg/ml) of Fab, 50% neutralization endpoint, pseudovirus assay [16]: 100 µg/mL | M18 Concentration (µg/ml) of Fab, 50% neutralization endpoint, pseudovirus assay [30]: < 2 µg/mL | % of fusion inhibition (syncytia count), Fab at 50 µg/ml [8]: 92% | % of fusion inhibition (syncytia count), Fab at 50 µg/ml [9]: 93% | M18 Concentration (µg/ml) of Fab, 50% neutralization endpoint, pseudovirus assay [17]: 25 µg/mL | M18 Concentration (µg/ml) of Fab, 50% neutralization endpoint, pseudovirus assay [18]: > 100 µg/mL | M18 Concentration (µg/ml) of Fab, 50% neutralization endpoint, pseudovirus assay [19]: > 100 µg/mL | % of fusion inhibition (syncytia count), Fab at 50 µg/ml [10]: 86% | M18 Concentration (µg/ml) of Fab, 50% neutralization endpoint, pseudovirus assay [31]: < 2 µg/mL | M18 Concentration (µg/ml) of Fab, 50% neutralization endpoint, pseudovirus assay [20]: 5 µg/mL | M18 Concentration (µg/ml) of Fab, 50% neutralization endpoint, pseudovirus assay [32]: 3 µg/mL | M18 Concentration (µg/ml) of Fab, 50% neutralization endpoint, pseudovirus assay [33]: 100 µg/mL | M18 Concentration (µg/ml) of Fab, 50% neutralization endpoint, pseudovirus assay [21]: 25 µg/mL | % of fusion inhibition (syncytia count), Fab at 50 µg/ml [11]: 97% | M18 Concentration (µg/ml) of Fab, 50% neutralization endpoint, pseudovirus assay [22]: < 1.6 µg/mL | M18 Concentration (µg/ml) of Fab, 50% neutralization endpoint, pseudovirus assay [23]: > 100 µg/mL | pKd [24]: 9.00 | pKd [26]: 9.05 | pKd [34]: 10.10 | pEC50 [35]: 9.32 | pEC50 [36]: 8.93 | pEC50 [37]: 8.97 | pEC50 [38]: 9.11 | pEC50 [39]: 6.94 | pEC50 [40]: 9.08 | pEC50 [41]: 9.06 | pEC50 [42]: 9.26 | pEC50 [43]: 9.60 | pEC50 [44]: 9.28 | pEC50 [45]: 9.01 | pEC50 [46]: 9.89 | pKd [28]: 9.15 | pKd [29]: 9.05 | pKd [47]: 10.05
